Source: patent US20260327578A1, “TRANSGLUTAMINASES AND USES THEREOF” (CURIE CO. INC., priority 2023, published 2026)

Key:
[1] = test system: C. albicans; assay: Preservative efficacy in body lotion against C. albicans; assay type: cell-based; settings: 0.005% in combinations, phenoxyethanol 0.7% alone, 0.3% combined, caprylyl glycol 0.7% alone, 0.35% combined, sodium benzoate 0.5% + EDTA 0.5%, 2% 2:1 propanediol:hexanediol, 0.5% CHA solution
Procedure: (§1) A vessel was filled with deionized water, placed under an overhead stirrer set to moderate mixing, and heated to 75-80° C. Glycerin was added to 2% and mixed until dissolved, followed by xanthan gum to 0.2%. At 75-80° C., cetearyl glucoside and cetearyl alcohol were added to 4% and 3%. Once both had melted fully, milk thistle seed oil was added and the batch was homogenized with a Silverson homogenizer with the standard emulsion screen until the batch had turned milky white. The batch was removed from heat and returned to propellor mixing with decreased speed to allow the emulsion to set up. At 40° C., pH was adjusted to pH 5.5-6.0 using citric acid or sodium hydroxide and split into several portions and allowed to finish cooling. Once cooled to room temperature, one portion of the body lotion was left unpreserved and the remaining portions were preserved with one or more substances selected from aseptilase, phenoxyethanol, caprylyl glycol, sodium benzoate, and EDTA. All samples were inoculated with E. coli (10^6 CFU/mL) and C. albicans (10^5 CFU/mL) and plated after 2 and 7 days.

[2] = test system: E. coli; assay: Preservative efficacy in body lotion against E. coli; assay type: cell-based; settings: 0.005% in combinations, phenoxyethanol 0.7% alone, 0.3% combined, caprylyl glycol 0.7% alone, 0.35% combined, sodium benzoate 0.5% + EDTA 0.5%, 2% 2:1 propanediol:hexanediol, 0.5% CHA solution
Procedure: as §1

[3] = test system: E. coli (ATCC 8739) / C. albicans (ATCC 10231); assay: MIC of permeabilizer co-dosants with and without Tgase variant; assay type: cell-based
Procedure: E. coli (ATCC 8739) and C. albicans (ATCC 10231) were acquired from the American Type Culture Collection (ATCC) (Manassas, VA) and maintained as −80° C. frozen glycerol stocks.
The following day, the cell density of the saturated cultures was calculated using OD600 and cultures were diluted to 104 to 10^6 CFU/mL in sterile Mueller Hinton broth to generate the inoculum, and 100 μL of the inoculum was combined with 100 μL of serially diluted Tgase variant A3 (SEQ ID NO: 4) at a range of 0.0001-0.05 weight percent. Growth curves were measured by OD600 on a BioTek® Synergy Plate Reader. All test conditions were performed in triplicate. MIC was determined to be […] (0.005% w/v) against E. coli for the enzyme described in SEQ ID NO: 4 using OD600.
For MIC determination of yeast cultures, C. albicans (ATCC 10231) was grown overnight (24 hours) in Sabouraud Dextrose broth at 30° C. The following day, the cell density of the saturated cultures was calculated using OD600 and cultures were diluted to 104 to 10^6 CFU/mL in sterile Sabouraud Dextrose broth media to generate the inoculum, and 100 μL of the inoculum was combined with 100 μL of serially diluted Tgase variant at a range of 0.0001-0.05 weight percent. The cultures were grown overnight at 30° C. and growth curves were measured by OD600 on a BioTek® Synergy Plate Reader. All test conditions were performed in triplicate. MIC was determined to be […] (0.005% w/v) against C. albicans for the enzyme described in SEQ ID NO: 4 using OD600.
Aseptilase activities of Tgase variant A3 (SEQ ID NO: 4) in combination with each of the three permeabilizer co-dosants, polymyxin B, chlorhexidine, and a 10000:4000:1 mixture by weight of sodium hexametaphosphate, phytic acid and chlorhexidine, were tested. […] The experiments were performed as described in Example 5. The co-dosants were added into Tgase variant A3 (SEQ ID NO: 4) solutions at concentrations of 0.125 g/L, 0.05 g/L, and 350 mM, respectively. The results are shown in Table 12 with Tgase concentrations reported within the table at the best MIC.

[4] = test system: N,N-dimethylcasein; assay: Productivity: total product formed after 24 hours (protein functionalization assay); assay type: biochemical; settings: improvement relative to wild-type Tgase (SEQ ID NO: 2); total product after 24 h
Procedure: Enzymatic “productivity” is a measure of product formation or substrate disappearance over time, at a prescribed temperature under specified reaction conditions. It is the measure both the durability and reaction yield of the enzyme variant. In this instance, productivity is defined as total product formed over 24-hours at a constant substrate concentration when the enzyme is the rate limiting factor. The time is defined as 24 hours, which represents approaching or surpassing burnout, denaturation, or self-reaction of the enzyme variant. In other words, variants with higher productivity deliver a higher product yield in 24-hours than variants with lower productivity produce in the same period of time. “Rate” refers to the initial rate for an enzymatic reaction, at a prescribed temperature under specified reaction conditions. The enzyme produces product at an initial rate that is approximately linear for a short period after the start of the reaction. When concentrations of enzyme and substrate are the same across the sample set, initial rates between enzyme variants can be compared. In this instance, the linear range for production of product occurs in one hour. Enzyme variants with faster initial rates deliver a higher product yield in one hour than variants with slower initial rates produce at the same time-period. In some cases, improvements to initial rates also deliver a more productive variant. In some cases, improvements to initial rates result in faster decay of the enzyme variant reducing overall enzymatic productivity. Productivity and rate may be assessed as described in Example 2.
Table 6 depicts variants of Streptomyces mobaraensis Tgase and improvement to productivity and/or rate relative to wild-type Tgase (SEQ ID NO. 2) as determined in Example 3. Numbering of amino acid positions is in reference to the mature S. mobaraensis Tgase sequence depicted in SEQ ID NO. 2. A “−” indicates a reduction in activity. A “+” indicates an improvement between 1.2 and 2-fold. A “++” indicates an improvement between 2 and 5-fold. A “+++” indicates an improvement greater than 5-fold.
To evaluate productivity, total product formed was measured after 24-hours of incubation, using the assay described in Example 4B. The time is defined as 24 hours which represents approaching or surpassing burnout, denaturation, or self-reaction of the enzyme variant.
Protein functionalization by Tgase variants was determined by the fluorogenic labeling of casein using monodansylcadaverine (e.g., a commercially available kit such as the Transglutaminase Fluorogenic Activity Assay Kit, T036, Zedira, Germany). Tgase activity was monitored by measuring fluorescence (excitation wavelength 332 nm; emission wavelength 500 nm) using a BioTek Synergy H1 microplate reader. Transglutaminase-catalyzed covalent coupling (crosslinking) of monodansylcadaverine with N,N-dimethylcasein produces a product that causes a shift in intensity and wavelength of fluorescence of the dansyl group now linked to the casein. The relative transglutaminase activity is shown by increase of fluorescence intensity over time. Enzyme variant loading was optimized based on expression levels, ensuring enzyme was the rate limiting factor. Briefly, cell-free reactions (set up as described in Example 2A) were first diluted 10-fold using phosphate buffer, pH 7.4, and a 5 microliter aliquot was analyzed.

B1: A3: Tgase variant S2P Q50S Q74A K91H Q124L K151R K152R N282M G283A relative to SEQ ID NO: 2 (protein, UniProt P81453 77-407, looked up, variant S2P Q50S Q74A K91H Q124L K151R K152R N282M G283A)
Protein-glutamine …: DPDDRVTPPAEPLDRMPDPYRPSYGRAETVVNNYIRKWQQVYSHRDGRKSQMTEEQREWLSYGCVGVTWVNSGAYPTNRLAFASFDEDRFHNELKNGRPRSGETRAEFEGRVAKESFDEEKGFLRAREVASVMNRALENAHDESAYLDNLRRELANGNDALRNEDARSPFYSALRNTPSFKERNGGNHDPSRMKAVIYSKHFWSGQDRSSSADKRKYGDPDAFRPAPGTGLVDMSRDRNIPRSPTSPGEGFVNFDYGWFGAQTEADADKTVWTHGNHYHAPMASLGAMHVYESKFRNWSEGYSDFDRGAYVITFIPKSWNTAPDKVKQGWP
Preservative efficacy against C. albicans, log reduction ([1]; day 2, aseptilase 0.01% alone): −1.08 log reduction in CFU/mL
Preservative efficacy against C. albicans, log reduction ([1]; day 7, aseptilase 0.01% alone): −1.19 log reduction in CFU/mL
Preservative efficacy against E. coli, log reduction ([2]; day 2, aseptilase 0.01% alone): 1.71 log reduction in CFU/mL
Preservative efficacy against E. coli, log reduction ([2]; day 7, aseptilase 0.01% alone): 3.45 log reduction in CFU/mL
Aseptilase activity in combination with permeabilizers ([3]; co-dosed with polymyxin B, chlorhexidine, or hexametaphosphate/phytic acid/chlorhexidine): further improved by co-dosing with cell membrane permeabilizers
concentration of Tgase at the best MIC ([3]; in combination with 10000:4000:1 hexametaphosphate, phytic acid and chlorhexidine): 200 ppm
concentration of Tgase at the best MIC ([3]; in combination with Chlorhexidine): 200 ppm
concentration of Tgase at the best MIC ([3]; in combination with Polymyxin B): 12.5 ppm
Productivity [4]: + (an improvement between 1.2 and 2-fold)
